In patent publication US20220387586A1 (Hoffmann-La Roche, published 2022):

B1: 0918 (bispecific antibody, human IgG1, kappa, L234A L235A)
heavy chain 1 (aLAG3 25F7 heavy chain, hole, with PD1 0376 VH at the C-terminus): QVQLQQWGAGLLKPSETLSLTCAVYGGSFSDYYWNWIRQPPGKGLEWIGEINHNGNTNSNPSLKSRVTLSLDTSKNQFSLKLRSVTAADTAVYYCAFGYSDYEYNWFDPWGQGTLVTVSSASTKGPSVFPLAPSSKSTSGGTAALGCLVKDYFPEPVTVSWNSGALTSGVHTFPAVLQSSGLYSLSSVVTVPSSSLGTQTYICNVNHKPSNTKVDKKVEPKSCDKTHTCPPCPAPEAAGGPSVFLFPPKPKDTLMISRTPEVTCVVVDVSHEDPEVKFNWYVDGVEVHNAKTKPREEQYNSTYRVVSVLTVLHQDWLNGKEYKCKVSNKALGAPIEKTISKAKGQPREPQVCTLPPSRDELTKNQVSLSCAVKGFYPSDIAVEWESNGQPENNYKTTPPVLDSDGSFFLVSKLTVDKSRWQQGNVFSCSVMHEALHNHYTQKSLSLSPGGGGGSGGGGSGGGGSGGGGSEVQLLESGGGLVQPGGSLRLSCAASGFSFSSYTMSWVRQAPGKGLEWVATISGGGRDIYYPDSVKGRFTISRDNSKNTLYLQMNSLRAEDTAVYYCVLLTGRVYFALDSWGQGTLVTVSS
heavy chain 2 (aLAG3 25F7 heavy chain, knob, with PD1 0376 VL at the C-terminus): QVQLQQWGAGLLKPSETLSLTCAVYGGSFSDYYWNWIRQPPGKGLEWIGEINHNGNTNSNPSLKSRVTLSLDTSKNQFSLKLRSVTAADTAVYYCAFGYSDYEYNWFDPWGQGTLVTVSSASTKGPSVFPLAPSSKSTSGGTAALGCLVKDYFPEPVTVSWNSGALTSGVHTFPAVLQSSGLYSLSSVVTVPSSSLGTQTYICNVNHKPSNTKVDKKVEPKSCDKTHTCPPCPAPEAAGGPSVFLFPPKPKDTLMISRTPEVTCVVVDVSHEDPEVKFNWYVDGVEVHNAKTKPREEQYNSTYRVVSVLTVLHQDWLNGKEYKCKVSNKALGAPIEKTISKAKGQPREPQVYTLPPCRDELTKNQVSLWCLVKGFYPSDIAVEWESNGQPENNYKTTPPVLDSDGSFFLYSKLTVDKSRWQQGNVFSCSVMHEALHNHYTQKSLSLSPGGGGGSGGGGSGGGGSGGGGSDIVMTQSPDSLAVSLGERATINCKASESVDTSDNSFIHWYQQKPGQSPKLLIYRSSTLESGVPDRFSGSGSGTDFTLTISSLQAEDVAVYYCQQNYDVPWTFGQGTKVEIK
light chain (aLAG3 25F7): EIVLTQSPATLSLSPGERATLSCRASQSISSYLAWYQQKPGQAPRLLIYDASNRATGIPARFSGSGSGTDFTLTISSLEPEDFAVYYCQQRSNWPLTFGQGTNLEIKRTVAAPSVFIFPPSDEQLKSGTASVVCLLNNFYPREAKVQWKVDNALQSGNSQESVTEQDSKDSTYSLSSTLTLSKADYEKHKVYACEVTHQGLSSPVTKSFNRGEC
notes: also called PD1/LAG3 0918
B2: PD1/LAG3 1252 (bispecific antibody, human IgG1, kappa, L234A L235A)
heavy 1: not shown
heavy 2: QVQLQQWGAGLLKPSETLSLTCAVYGGSFSDYYWNWIRQPPGKGLEWIGEINHNGNTNSNPSLKSRVTLSLDTSKNQFSLKLRSVTAADTAVYYCAFGYSDYEYNWFDPWGQGTLVTVSSASTKGPSVFPLAPSSKSTSGGTAALGCLVEDYFPEPVTVSWNSGALTSGVHTFPAVLQSSGLYSLSSVVTVPSSSLGTQTYICNVNHKPSNTKVDEKVEPKSCDKTHTCPPCPAPEAAGGPSVFLFPPKPKDTLMISRTPEVTCVVVDVSHEDPEVKFNWYVDGVEVHNAKTKPREEQYNSTYRVVSVLTVLHQDWLNGKEYKCKVSNKALGAPIEKTISKAKGQPREPQVCTLPPSRDELTKNQVSLSCAVKGFYPSDIAVEWESNGQPENNYKTTPPVLDSDGSFFLVSKLTVDKSRWQQGNVFSCSVMHEALHNHYTQKSLSLSPGK
light 1: DIVMTQSPDSLAVSLGERATINCKASESVDTSDNSFIHWYQQKPGQSPKLLIYRSSTLESGVPDRFSGSGSGTDFTLTISSLQAEDVAVYYCQQNYDVPWTFGQGTKVEIKSSASTKGPSVFPLAPSSKSTSGGTAALGCLVKDYFPEPVTVSWNSGALTSGVHTFPAVLQSSGLYSLSSVVTVPSSSLGTQTYICNVNHKPSNTKVDKKVEPKSC
light 2: not shown
notes: 2+1 format: two LAG3 Fabs, one PD1 crossFab fused to the C-terminus of the Fc knob heavy chain
B3: PD1/LAG3 0725 (bispecific antibody, human IgG1, kappa, L234A L235A)
heavy 1: not shown
heavy 2: DKTHTCPPCPAPEAAGGPSVFLFPPKPKDTLMISRTPEVTCVVVDVSHEDPEVKFNWYVDGVEVHNAKTKPREEQYNSTYRVVSVLTVLHQDWLNGKEYKCKVSNKALGAPIEKTISKAKGQPREPQVCTLPPSRDELTKNQVSLSCAVKGFYPSDIAVEWESNGQPENNYKTTPPVLDSDGSFFLVSKLTVDKSRWQQGNVFSCSVMHEALHNHYTQKSLSLSPGKGGGGSGGGGSEVQLLESGGGLVQPGGSLRLSCAASGFIFDDYTMNWVRQAPGKGLEWVAVISWDGGGTYYTDSVKGRFTISRDDFKNTLYLQMNSLRAEDTAVYYCAKGLTDTTLYGSDYWGQGTLVTVSSASTKGPSVFPLAPSSKSTSGGTAALGCLVEDYFPEPVTVSWNSGALTSGVHTFPAVLQSSGLYSLSSVVTVPSSSLGTQTYICNVNHKPSNTKVDEKVEPKSC
light 1: EVQLLESGGGLVQPGGSLRLSCAASGFSFSSYTMSWVRQAPGKGLEWVATISGGGRDIYYPDSVKGRFTISRDNSKNTLYLQMNSLRAEDTAVYYCVLLTGRVYFALDSWGQGTLVTVSSASVAAPSVFIFPPSDEQLKSGTASVVCLLNNFYPREAKVQWKVDNALQSGNSQESVTEQDSKDSTYSLSSTLTLSKADYEKHKVYACEVTHQGLSSPVTKSFNRGEC
light 2: not shown
notes: 1+1 trans format: LAG3 Fab fused to the C-terminus of the Fc hole chain

Legend:
[1] = molecular target: T1, PD1 on PD1+LAG3+ human U2OS cells (UniProt Q15116 25-288); test: cellular PD1/LAG3 dimerization assay on PD1+LAG3+ U2OS cells, chemoluminescence; the signal needs PD1 and LAG3 bound at once
Procedure: (§1) For this specific interaction, the cytosolic C-terminal ends of both receptors were individually fused to heterologous subunits of a reporter enzyme.
(§2) On the next day cell medium was discarded and replaced by fresh medium. Antibody or ligand dilutions were prepared and titrated amounts of indicated (bispecific) antibodies were added and incubated at 37° C. for 2 hours. Next, a substrate/buffer mix (e.g. PathHunterFlash detection reagent) was added and again incubated for 1h. For measuring chemoluminescence induced upon simultaneous binding and dimerization a Tecan infinite reader was used.

[2] = molecular target: T2, LAG3 on PD1+LAG3+ human U2OS cells (Homo sapiens (Human), UniProt P18627 23-525); test: as above
T2 construct: also called cellular LAG3 (dimerization assay); not shown: subunit of the reporter enzyme fused to the cytosolic C-terminus
T2 sequence: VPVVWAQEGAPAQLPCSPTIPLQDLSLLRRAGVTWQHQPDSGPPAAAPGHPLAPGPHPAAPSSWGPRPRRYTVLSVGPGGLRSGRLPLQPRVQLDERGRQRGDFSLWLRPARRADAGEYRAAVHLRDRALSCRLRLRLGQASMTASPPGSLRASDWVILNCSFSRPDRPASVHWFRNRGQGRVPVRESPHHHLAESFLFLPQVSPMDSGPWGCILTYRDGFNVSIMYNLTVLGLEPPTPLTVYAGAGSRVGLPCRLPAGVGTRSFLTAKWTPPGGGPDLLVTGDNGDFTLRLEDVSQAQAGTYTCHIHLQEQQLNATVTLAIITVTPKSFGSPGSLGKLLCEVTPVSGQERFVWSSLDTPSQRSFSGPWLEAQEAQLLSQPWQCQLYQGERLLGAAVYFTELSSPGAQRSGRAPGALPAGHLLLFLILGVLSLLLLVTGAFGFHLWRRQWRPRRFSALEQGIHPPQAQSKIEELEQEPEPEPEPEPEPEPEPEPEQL
Procedure: as §1, §2

biotinylated-Lag3 = molecular target: T3, biotinylated-Lag3 (UniProt P18627 23-450, limits assumed, biotinylated); test: ELISA, inhibition of biotinylated-Lag3 binding to MHC-II on A375 cells (competitor MHC-II)
T3 construct: Probably a human LAG3 ECD construct; also called Lag3 (MHCII/ELISA)
T3 sequence (looked up): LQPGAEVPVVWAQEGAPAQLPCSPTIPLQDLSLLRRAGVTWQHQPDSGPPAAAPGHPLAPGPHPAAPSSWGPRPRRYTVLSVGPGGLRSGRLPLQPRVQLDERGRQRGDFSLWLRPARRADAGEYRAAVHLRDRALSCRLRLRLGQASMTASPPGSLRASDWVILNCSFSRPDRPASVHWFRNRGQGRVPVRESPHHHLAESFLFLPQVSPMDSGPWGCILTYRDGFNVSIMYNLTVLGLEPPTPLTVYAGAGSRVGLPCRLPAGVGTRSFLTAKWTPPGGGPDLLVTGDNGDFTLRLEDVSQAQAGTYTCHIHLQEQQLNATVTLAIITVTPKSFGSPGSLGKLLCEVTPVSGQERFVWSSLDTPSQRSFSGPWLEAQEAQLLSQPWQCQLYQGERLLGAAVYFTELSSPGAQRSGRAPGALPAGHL
Procedure: 25 μl/well of A375 cells (10000 cells/well) were seeded into tissue culture treated 384-well plates (Corning, 3701) and incubated at 37° C. overnight. […] After washing (1×90 μl in PBST) cells were fixed by addition of 30 μl/well glutaraldehyde to a final concentration of 0.05% (Sigma Cat.No: G5882), 10 min at room temperature. After washing (3×90 μl/well with PBST-buffer) 25 μl/well Poly-HRP40-Streptavidin (Fitzgerald, 65R-S104PHRPx) was added in a 1:2000 or 1:8000 dilution and incubated at RT for 1 h. After washing (3×90 μl/well with PBST-buffer) 25 μl/well TMB substrate (Roche, 11835033001) was added and incubated for 2 to 10 min. Measurement took place on a Tecan Safire 2 instrument at 370/492 nm.

[3] = molecular target: T4, biotinylated PD1-ECD-AviHis (human, UniProt Q15116 25-170, biotinylated); test: ELISA on coated biotinylated PD1-ECD-AviHis (rel. EC50)
T4 construct: also called huPD1; hu PD1; not shown: Avi-His tag
Procedure: After washing (3×90 μl/well with PBST-buffer) 25 μl/well goat-anti-human H+L-POD (JIR, JIR109-036-098) was added in 1:5000 dilution and incubated at RT for 1 h on a shaker. After washing (3×90 μl/well with PBST-buffer) 25 μl/well of TMB substrate (Roche, 11835033001) was added and incubated until OD 2-3. Measurement took place at 370/492 nm.

[4] = molecular target: T5, LAG3 on cells (recombinant CHO cells expressing Lag3) (human, UniProt P18627 29-525); test: cell ELISA on recombinant CHO cells expressing Lag3 (rel. EC50)
T5 construct: The cell ELISA paragraphs say only 'Lag3'; also called CHO-LAG3; Lag3 cells
T5 sequence: T2 sequence
Procedure: After washing (1×90 μl in PBST) cells were fixed by addition of 30 μl/well glutaraldehyde to a final concentration of 0.05% (Sigma Cat.No: G5882), 10 min at room temperature. After washing (3×90 μl/well with PBST-buffer) 25 μl/well goat anti-Human Ig κ chain antibody-HRP conjugate (Milipore, AP502P) was added in a 1:1000 dilution and incubated at RT for 1 h. After washing (3×90 μl/well with PBST-buffer) 25 μl/well TMB substrate (Roche, 11835033001) was added and incubated for 6-10 min. Measurement took place on a Tecan Safire 2 instrument at 370/492 nm.

[5] = molecular target: T6, recombinant Human LAG-3 Fc Chimera Protein (R&D Systems, 2319-L3) (human, UniProt P18627 29-450); test: ELISA on coated Human LAG-3 Fc Chimera (rel. EC50)
T6 construct: Bought protein; also called huLAG3; not shown: Fc part of the chimera
T6 sequence: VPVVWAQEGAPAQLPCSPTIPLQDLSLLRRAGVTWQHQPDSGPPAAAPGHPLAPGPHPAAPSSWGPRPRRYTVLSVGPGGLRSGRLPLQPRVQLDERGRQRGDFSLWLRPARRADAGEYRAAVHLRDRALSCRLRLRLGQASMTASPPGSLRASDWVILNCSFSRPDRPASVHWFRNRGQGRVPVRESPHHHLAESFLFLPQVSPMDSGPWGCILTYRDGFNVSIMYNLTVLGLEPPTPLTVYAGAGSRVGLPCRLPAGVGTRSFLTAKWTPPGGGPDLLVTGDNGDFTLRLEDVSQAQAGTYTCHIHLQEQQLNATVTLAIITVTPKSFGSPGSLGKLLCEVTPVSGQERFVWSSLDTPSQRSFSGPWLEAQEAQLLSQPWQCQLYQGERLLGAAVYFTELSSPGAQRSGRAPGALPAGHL
Procedure: After washing (3×90 μl/well with PBST-buffer) each well was incubated with 90 μl blocking buffer (PBS+2% BSA+0.05% Tween 20) for 1 h at room temperature. […] After washing (3×90 μl/well with PBST-buffer) 25 μl/well goat anti-Human Ig κ chain antibody-HRP conjugate (Milipore, AP502P) was added in a 1:2000 dilution and incubated at RT for 1 h. After washing (3×90 μl/well with PBST-buffer) 25 μl/well TMB substrate (Roche, 11835033001) was added and incubated for 2-10 min. Measurement took place on a Tecan Safire 2 instrument at 370/492 nm.

[6] = molecular target: T7, full-length human PD1 on cells (human, UniProt Q15116 25-288); test: cell ELISA on CHO-K1 cells expressing full-length human PD1 (rel. EC50)
T7 construct: also called CHO-PD1
Procedure: (to avoid internalization). After washing carefully (1×90 μl/well PBST) cells were fixed by adding 30 μl/well 0.05% Glutaraldehyde (Sigma, Cat.No: G5882, 25%) diluted in 1×PBS-buffer and incubated for 10 min at RT. After washing (3×90 μl/well PBST) 25 μl/well secondary antibody was added for detection: goat-anti-human H+L-POD (JIR, JIR109-036-088)/Sheep-anti-mouse-POD (GE NA9310) followed by 1 h incubation at RT on shaker. After washing (3×90 μl/well PBST) 25 μl/well TMB substrate solution (Roche 11835033001) was added and incubated until OD 1.0-2.0. Plates were measured at 370/492 nm.

[7] = molecular target: T1, PD1 on PD1+LAG3+ human U2OS cells; test: cellular PD1/LAG3 dimerization assay, 7500 PD1+LAG3+ U2OS cells a well, 20 h at 37 °C, chemoluminescence; the signal needs PD1 and LAG3 bound at once
Procedure: Next, assay plates were equilibrated to room temperature and a substrate/buffer mix (PathHunterFlash detection reagent, Discoverx) was added and again incubated for 4h. For measuring chemoluminescence induced upon simultaneous binding and dimerization a SpectraMax L plate reader (Molecular Devices) was used.

[8] = molecular target: T5, LAG3 on cells (recombinant CHO cells …); test: cell-based or functional assay
[9] = molecular target: T7, full-length human PD1 on cells; test: cell-based or functional assay

T1 sequence (Q15116 25-288): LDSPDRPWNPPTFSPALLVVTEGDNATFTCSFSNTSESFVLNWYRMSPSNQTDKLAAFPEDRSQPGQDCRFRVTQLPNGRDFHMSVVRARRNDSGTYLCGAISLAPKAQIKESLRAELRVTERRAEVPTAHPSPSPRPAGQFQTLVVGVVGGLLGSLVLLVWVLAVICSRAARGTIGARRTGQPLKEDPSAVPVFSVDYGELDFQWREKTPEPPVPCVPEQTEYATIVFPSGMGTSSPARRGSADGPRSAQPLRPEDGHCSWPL
T7 sequence (Q15116 25-288 limits assumed): as the sequence (Q15116 25-288) above
T4 sequence (Q15116 25-170): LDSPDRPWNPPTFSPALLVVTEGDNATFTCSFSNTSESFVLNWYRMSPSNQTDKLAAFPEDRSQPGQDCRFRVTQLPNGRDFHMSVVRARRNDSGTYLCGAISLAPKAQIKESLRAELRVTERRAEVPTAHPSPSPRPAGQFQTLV

Binder	EC50 (read off the curve) [1]	EC50 (read off the curve) [2]	IC50 (biotinylated-Lag3)	EC50 [3]	EC50 [4]	EC50 [5]	EC50 [6]	EC50 (read off the curve) [7]	EC50 [nM], PD-1 & LAG-3 combo reporter assay (NFAT luciferase) [8]	EC50 [nM], PD-1 & LAG-3 combo reporter assay (NFAT luciferase) [9]
B1	~0.4 µg/mL	–	–	–	–	–	–	–	–	–
B2	~0.06 µg/mL	~0.06 µg/mL	0.47 nM	0.03 nM	0.64 nM	0.02 nM	0.31 nM	–	–	–
B3	–	–	–	–	–	–	–	~0.06 nM	2.2 nM	2.2 nM
